B1: TCR of clonotype 4 (TCR beta CDR3 CASSWEAGQETQYF, SEQ ID NO:4), HPV 16 E6 91-115 specific T cell clonotype of subject 6 (TCR, V domains shown)
V domain 1: GENVEQHPSTLSVQEGDSAVIKCTYSDSASNYFPWYKQELGKGPQLIIDIRSNVGEKKDQRIAVTLNKTAKHFSLHITETQPEDSAVYFCAASAPGRTDKLIFGTGTRLQVFP
V domain 2: KAGVTQTPRYLIKTRGQQVTLSCSPISGHRSVSWYQQTPGQGLQFLFEYFSETQRNKGNFPGRFSGRQFSNSRSEMNVSTLELGDSALYLCASSWEAGQETQYFGPGTRLLVLE
B2: TCR of clonotype 1 (TCR beta CDR3 CASSPTSGGLTWDEQYF, SEQ ID NO:1), HPV 16 E6 91-115 specific T cell clonotype of subject 6 (TCR, V domains shown)
V domain 1: AQSVAQPEDQVNVAEGNPLTVKCTYSVSGNPYLFWYVQYPNRGLQFLLKYITGDNLVKGSYGFEAEFNKSQTSFHLKKPSALVSDSALYFCAVRAPSGSARQLTFGSGTQLTVLP
V domain 2: EAGVAQSPRYKIIEKRQSVAFWCNPISGHATLYWYQQILGQGPKLLIQFQNNGVVDDSQLPKDRFSAERLKGVDSTLKIQPAKLEDSAVYLCASSPTSGGLTWDEQYFGPGTRLTVTE
B3: TCR of clonotype 3 (TCR beta CDR3 CASSFPGENEQFF, SEQ ID NO:3), HPV 16 E6 91-115 specific T cell clonotype of subject 6 (TCR, V domains shown)
V domain 1: GDSVTQMEGPVTLSEEAFLTINCTYTATGYPSLFWYVQYPGEGLQLLLKATKADDKGSNKGFEATYRKETTSFHLEKGSVQVSDSAVYFCALTLSGSARQLTFGSGTQLTVLP
V domain 2: DAGVIQSPRHEVTEMGQEVTLRCKPISGHNSLFWYRQTMMRGLELLIYFNNNVPIDDSGMPEDRFSAKMPNASFSTLKIQPSEPRDSAVYFCASSFPGENEQFFGPGTRLTVLE
B4: TCR of clonotype 2 (TCR beta CDR3 CASSHNSGREGNEQFF, SEQ ID NO:2), HPV 16 E6 91-115 specific T cell clonotype of subject 6 (TCR, V domains shown)
V domain 1: GENVEQHPSTLSVQEGDSAVIKCTYSDSASNYFPWYKQELGKRPQLIIDIRSNVGEKKDQRIAVTLNKTAKHFSLHITETQPEDSAVYFCAPRVTGGGNKLTFGTGTQLKVEL
V domain 2: GAGVSQSPRYKVAKRGQDVALRCDPISGHVSLFWYQQALGQGPEFLTYFQNEAQLDKSGLPSDRFFAERPEGSVSTLKIQRTQQEDSAVYLCASSHNSGREGNEQFFGPGTRLTVLE

Biological target: T1, HPV 16 E6 91-115 region, given as three overlapping 15-mer peptides (91-105 YGTTLEQQYNKPLCD, SEQ ID NO:21); … (human papillomavirus type 16)
T1 peptide: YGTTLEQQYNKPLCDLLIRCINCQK
Experiment: cell-based or functional assay
For B1, the “Frequency (%) of the clonotype among IFN-gamma secreting cells sorted after peptide stimulation” value (“Frequency (%)” for short) was 8.6%. For B2, the “Frequency (%)” value was 33.3%. With B3 the “Frequency (%)” value was 9.8%. For B4, the “Frequency (%)” value was 17%.
